{"source": "patent US20230322930A1", "about": "“USE OF AN ANTI-PD-1 ANTIBODY AND A CYTOTOXIC ANTICANCER DRUG IN TREATMENT OF NON-SMALL CELL LUNG CANCER” (SHANGHAI JUNSHI BIOSCIENCES CO., LTD., priority 2020, published 2023)", "system": "EGFR+NSCLC patients", "experiment": "Phase II clinical trial, safety study (treatment-related adverse effects)", "conditions": "with pemetrexed + carboplatin; n = 40"}
{"substance": "toripalimab: anti-PD-1 humanized IgG4 mAb with light and heavy chains of SEQ ID NOs: 9 and 10; described in WO 2014206107", "values": [{"measurement": "Elevated glutamyltransferase (TRAE), incidence of grade 3-5", "value": 0, "unit": "%"}, {"measurement": "Elevated glutamyltransferase (TRAE), total incidence", "value": "(10.0) %"}, {"measurement": "Influenza and other diseases (TRAE), incidence of grade 3-5", "value": 0, "unit": "%"}, {"measurement": "Influenza and other diseases (TRAE), total incidence", "value": "(10.0) %"}, {"measurement": "Leukopenia (TRAE), incidence of grade 3-5", "value": "(22.5) %"}, {"measurement": "Urinary tract infection (TRAE), incidence of grade 3-5", "value": 0, "unit": "%"}, {"measurement": "Urinary tract infection (TRAE), total incidence", "value": "(12.5) %"}]}
